The values below come from PMC6985446.

Changes are numbered by the printed parent chain.

Assay in all cases: EMSA
Conditions in all cases: 10 mM Tris pH 8, 150 mM KCl, 500 nM EDTA, 0.1% Triton X-100, 12.5% glycerol, 1 mM DTT, 1 ug poly(dI-dC), 4 C, 30 min
In general terms: In EMSA bound probe runs differently from free probe, usually more slowly.

Data set [1] addresses T1, HetR S127A S127A (Nostoc PCC 7120) (UniProt P27709).
T1 sequence: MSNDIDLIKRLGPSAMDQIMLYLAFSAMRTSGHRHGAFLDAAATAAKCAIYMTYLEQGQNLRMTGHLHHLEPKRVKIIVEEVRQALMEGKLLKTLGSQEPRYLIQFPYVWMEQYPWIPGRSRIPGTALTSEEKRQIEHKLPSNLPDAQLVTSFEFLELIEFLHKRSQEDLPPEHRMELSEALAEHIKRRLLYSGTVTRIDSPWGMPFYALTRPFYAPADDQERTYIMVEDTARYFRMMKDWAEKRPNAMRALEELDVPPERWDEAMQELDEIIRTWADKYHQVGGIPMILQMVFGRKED

Data set [2] concerns the target T2, HetR S130A S130A (Nostoc PCC 7120) (UniProt P27709).
T2 sequence: T1 sequence with A127S, S130A

Data set [3] has as its target T3, HetR S130D S130D (Nostoc PCC 7120) (UniProt P27709).
T3 sequence: T1 sequence with A127S, S130D

Data set [4] deals with T4, HetR S179A S179A (Nostoc PCC 7120) (UniProt P27709).
T4 sequence: T1 sequence with A127S, S179A

In the case of “TGAGTTATACGCTATATCAATGGGGATTTTGAGCATTTTCTACTAGGTAATGAGGGGTTAGACCCCTCGCCTACTGTGCATTTGAGACTTTAAACCTACTAAGAGAATTTACCACTAAAT (double strand) [hetP promoter]”, the binding entry is reported as “binds” in data set [1], “binds” in data set [2], “binds” in data set [3] and “no binding” in data set [4].
